Measured values reported in WO2024101382A1 (dated 2024).

Target: T1, Recombinant mouse LSR-Fc (mouse, UniProt Q99KG5 36-206, limits assumed)
T1 construct: not shown: Fc part
T1 sequence (looked up): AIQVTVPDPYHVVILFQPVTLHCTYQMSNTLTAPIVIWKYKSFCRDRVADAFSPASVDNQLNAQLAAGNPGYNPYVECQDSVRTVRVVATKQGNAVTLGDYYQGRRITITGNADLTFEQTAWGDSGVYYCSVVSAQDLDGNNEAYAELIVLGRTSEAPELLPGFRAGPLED
Test: ELISA, LSR-Fc coated on plate

B1: Chicken mouse chimeric anti-LSR antibody (#27-6mF18) (antibody, V domains shown)
VH: AVTLDESGGGLQMPGGALSLVCRASGFDFSSYEMQWIRQAPGKGLEWVAGISGAGSGTRYGSAVKGRATISRDNGQSTVRLQLNNLRAEDTGIYFCARSSNIDAWGHGTEVTVST
VL: ALTQPASVSANLGGTVKITCSGGGRYAESYYYGWYQQKSPGSTPVTVIYWNDKRPSNIPSRFSGSLSGSTNTLTITGVQVEDEAVYFCGSYEDSRSAFGAGTTLTV
notes: Chicken-mouse chimeric antibody; also called anti-LSR monoclonal antibody #27-6 mF-18
Does B1 bind?
Result: binds
